Target: T1, GST-CTU2 (Arabidopsis thaliana (Mouse-ear cress), UniProt O65628)
T1 chain: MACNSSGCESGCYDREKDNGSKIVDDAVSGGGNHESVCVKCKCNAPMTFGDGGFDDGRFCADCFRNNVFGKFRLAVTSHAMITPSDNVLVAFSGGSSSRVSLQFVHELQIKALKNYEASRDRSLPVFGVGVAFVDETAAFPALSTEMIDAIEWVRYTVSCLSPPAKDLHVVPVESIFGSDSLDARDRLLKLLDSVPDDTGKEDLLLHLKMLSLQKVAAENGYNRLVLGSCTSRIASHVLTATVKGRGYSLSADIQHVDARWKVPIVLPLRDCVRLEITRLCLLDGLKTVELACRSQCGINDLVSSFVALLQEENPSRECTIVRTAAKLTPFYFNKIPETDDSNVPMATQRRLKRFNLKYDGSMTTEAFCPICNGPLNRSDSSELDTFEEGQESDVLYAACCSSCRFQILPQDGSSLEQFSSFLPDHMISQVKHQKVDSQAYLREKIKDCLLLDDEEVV
Assay: GST pull-down

B1: ROL5-His (protein)
chain: MEAKNKKAVASRLCCLCNLRRPVLKRPKTLQQICRECFYEVFEEEIHQVIVQNRLFKSGERVAIGASGGKDSTVLAYVLSELNRRHNYGLDLFLLSIDEGITGYRDDSLETVKRNEVQYGLPLKIVSYKDLYGWTMDEIVKMIGLKNNCTFCGVFRRQALDRGAALLKVEKLVTGHNADDIAETVLLNILRGDIARLSRCTSITTGEDGPIPRCKPFKYTYEKEIVMYAYFKKLDYFSTECIYSPNAYRGFAREFIKDLERIRPRAILDIIKSGEDFRIATTTKMPEQGTCERCGYISSQKWCKACVLLEGLNRGLPKMGIGRPRGVNGDHNKETKKPGSVAKSIESKQCGSLDF
binding result: binds
